Measurements: patent US20210284747A1 (CAPELLA BIOSCIENCE, published 2021)

Each binder was assayed against LIGHT without residues 81-84, stably expressed on EL4 cells (EL4-NC-LIGHT) (assay: cell-based or functional assay).

Binder	IC50, inhibition of IL-8 secretion, HT-29 + EL4-NC-LIGHT cells [pM]
3B04_var8 (antibody, V domains shown) VH: QVQLVQSGAEVKKPGASVKVSCKASGYTFTDYEMHWVRQAPGQGLEWMGEIDPETGDTAYAQKFQGRVTLTADKSTSTAYMELSSLRSEDTAVYYCSRETDYFFDYWGQGTLVTVSS VL: DIQMTQSPSSLSASVGDRVTITCGASENIYGALNWYQRKQGKAPKLLIYGATNLADGVPSRFSGSGSGRDYTLTISSLQPEDFATYYCQNVLTTPWTFGQGTKLEIKR	50
3B04_var12 (antibody, V domains shown) VH: QVQLVQSGAEVKKPGASVKVSCKASGYTFTDYEMHWVRQAPGQGLEWMGEIDPETGDTAYAQKFQGRVTLTADKSTSTAYMELSSLRSEDTAVYYCSRETDYFFDYWGQGTLVTVSS VL: DIQMTQSPSSLSASVGDRVTITCGASENIYGALNWYQQKPGKAPKLLIYGATNLADGVPSRFSGSGSGRDYTLTISSLQPEDFATYYCQNVLTTPWTFGQGTKLEIKR	70
3B04_var4 (antibody, V domains shown) VH: QVQLVQSGAEVKKPGASVKVSCKASGYTFTDYEMHWVRQAPGQGLEWMGEIDPETGDTAYAQKFQGRVTLTADKSTSTAYMELSSLRSEDTAVYYCSRETDYFFDYWGQGTLVTVSS VL: DIQMTQSPSSLSASVGDRVTITCGASENIYGALNWYQRKQGKAPQLLIYGATNLADGVSSRFSGSGSGRDYTLTISSLQPEDFATYYCQNVLTTPWTFGQGTKLEIKR	40
3B04_var9 (antibody, V domains shown) VH: QVQLVQSGAEVKKPGASVKVSCKASGYTFTDYEMHWVRQAPGQGLEWIGEIDPETGDTAYSQKFKGRATLTADKSTSTAYMEFSSLRSEDTAVYYCSRETDYFFDYWGQGTLVTVSS VL: DIQMTQSPSSLSASVGDRVTITCGASENIYGALNWYQQKPGKAPKLLIYGATNLADGVPSRFSGSGSGRDYTLTISSLQPEDFATYYCQNVLTTPWTFGQGTKLEIKR	90
3B04_var2 (antibody, V domains shown) VH: QVQLVQSGAEVKKPGASVKVSCKASGYTFTDYEMHWVRQAPGQGLEWIGEIDPETGDTAYSQKFQGRVTLTADKSTSTAYMEFSSLRSEDTAVYYCSRETDYFFDYWGQGTLVTVSS VL: DIQMTQSPSSLSASVGDRVTITCGASENIYGALNWYQRKQGKAPQLLIYGATNLADGVSSRFSGSGSGRDYTLTISSLQPEDFATYYCQNVLTTPWTFGQGTKLEIKR	60
3D12_var1 (antibody, V domains shown) VH: QVQLVQSGAEVKKPGASVKVSCKASDYTFTDSEIHWVRQAPGQGLEWIGEIDPETGGTAYNQKFKGRATLTADKSTSTAYMELSSLRSEDTAVYYCSRETDYFFDYWGQGTLVTVSS VL: DIQMTQSPSSLSASVGDRVTITCGASENIYGALNWYQRKQGKAPQLLIYGATNLADGVSSRFSGSGSGRDYTLTISSLQPEDVATYYCQNVLSTPWTFGQGTKLEIKR	330
3B04_var6 (antibody, V domains shown) VH: QVQLVQSGAEVKKPGASVKVSCKASGYTFTDYEMHWVRQAPGQGLEWIGEIDPETGDTAYSQKFQGRVTLTADKSTSTAYMEFSSLRSEDTAVYYCSRETDYFFDYWGQGTLVTVSS VL: DIQMTQSPSSLSASVGDRVTITCGASENIYGALNWYQRKQGKAPKLLIYGATNLADGVPSRFSGSGSGRDYTLTISSLQPEDFATYYCQNVLTTPWTFGQGTKLEIKR	80
3B04_var1 (antibody, V domains shown) VH: QVQLVQSGAEVKKPGASVKVSCKASGYTFTDYEMHWVRQAPGQGLEWIGEIDPETGDTAYSQKFKGRATLTADKSTSTAYMEFSSLRSEDTAVYYCSRETDYFFDYWGQGTLVTVSS VL: DIQMTQSPSSLSASVGDRVTITCGASENIYGALNWYQRKQGKAPQLLIYGATNLADGVSSRFSGSGSGRDYTLTISSLQPEDFATYYCQNVLTTPWTFGQGTKLEIKR	50
3B04_var5 (antibody, V domains shown) VH: QVQLVQSGAEVKKPGASVKVSCKASGYTFTDYEMHWVRQAPGQGLEWIGEIDPETGDTAYSQKFKGRATLTADKSTSTAYMEFSSLRSEDTAVYYCSRETDYFFDYWGQGTLVTVSS VL: DIQMTQSPSSLSASVGDRVTITCGASENIYGALNWYQRKQGKAPKLLIYGATNLADGVPSRFSGSGSGRDYTLTISSLQPEDFATYYCQNVLTTPWTFGQGTKLEIKR	40
3D12_var2 (antibody, V domains shown) VH: QVQLVQSGAEVKKPGASVKVSCKASDYTFTDSEIHWVRQAPGQGLEWIGEIDPETGGTAYNQKFQGRVTLTADKSTSTAYMELSSLRSEDTAVYYCSRETDYFFDYWGQGTLVTVSS VL: DIQMTQSPSSLSASVGDRVTITCGASENIYGALNWYQRKQGKAPQLLIYGATNLADGVSSRFSGSGSGRDYTLTISSLQPEDVATYYCQNVLSTPWTFGQGTKLEIKR	740
3D12_var3 (antibody, V domains shown) VH: QVQLVQSGAEVKKPGASVKVSCKASDYTFTDSEIHWVRQAPGQGLEWMGEIDPETGGTAYAQKFQGRVTLTADKSTSTAYMELSSLRSEDTAVYYCSRETDYFFDYWGQGTLVTVSS VL: DIQMTQSPSSLSASVGDRVTITCGASENIYGALNWYQRKQGKAPQLLIYGATNLADGVSSRFSGSGSGRDYTLTISSLQPEDVATYYCQNVLSTPWTFGQGTKLEIKR	530
3B04_var10 (antibody, V domains shown) VH: QVQLVQSGAEVKKPGASVKVSCKASGYTFTDYEMHWVRQAPGQGLEWIGEIDPETGDTAYSQKFQGRVTLTADKSTSTAYMEFSSLRSEDTAVYYCSRETDYFFDYWGQGTLVTVSS VL: DIQMTQSPSSLSASVGDRVTITCGASENIYGALNWYQQKPGKAPKLLIYGATNLADGVPSRFSGSGSGRDYTLTISSLQPEDFATYYCQNVLTTPWTFGQGTKLEIKR	40

The remaining lines, values ahead:

IC50, inhibition of IL-8 secretion, HT-29 + EL4-NC-LIGHT cells [pM]	Binder
440	3D12_var10 (antibody, V domains shown) VH: QVQLVQSGAEVKKPGASVKVSCKASDYTFTDSEIHWVRQAPGQGLEWIGEIDPETGGTAYNQKFQGRVTLTADKSTSTAYMELSSLRSEDTAVYYCSRETDYFFDYWGQGTLVTVSS VL: DIQMTQSPSSLSASVGDRVTITCGASENIYGALNWYQQKPGKAPKLLIYGATNLADGVPSRFSGSGSGRDYTLTISSLQPEDVATYYCQNVLSTPWTFGQGTKLEIKR
470	3D12_var6 (antibody, V domains shown) VH: QVQLVQSGAEVKKPGASVKVSCKASDYTFTDSEIHWVRQAPGQGLEWIGEIDPETGGTAYNQKFQGRVTLTADKSTSTAYMELSSLRSEDTAVYYCSRETDYFFDYWGQGTLVTVSS VL: DIQMTQSPSSLSASVGDRVTITCGASENIYGALNWYQRKQGKAPKLLIYGATNLADGVPSRFSGSGSGRDYTLTISSLQPEDVATYYCQNVLSTPWTFGQGTKLEIKR
590	3D12_var5 (antibody, V domains shown) VH: QVQLVQSGAEVKKPGASVKVSCKASDYTFTDSEIHWVRQAPGQGLEWIGEIDPETGGTAYNQKFKGRATLTADKSTSTAYMELSSLRSEDTAVYYCSRETDYFFDYWGQGTLVTVSS VL: DIQMTQSPSSLSASVGDRVTITCGASENIYGALNWYQRKQGKAPKLLIYGATNLADGVPSRFSGSGSGRDYTLTISSLQPEDVATYYCQNVLSTPWTFGQGTKLEIKR
550	3D12_var11 (antibody, V domains shown) VH: QVQLVQSGAEVKKPGASVKVSCKASDYTFTDSEIHWVRQAPGQGLEWMGEIDPETGGTAYAQKFQGRVTLTADKSTSTAYMELSSLRSEDTAVYYCSRETDYFFDYWGQGTLVTVSS VL: DIQMTQSPSSLSASVGDRVTITCGASENIYGALNWYQQKPGKAPKLLIYGATNLADGVPSRFSGSGSGRDYTLTISSLQPEDVATYYCQNVLSTPWTFGQGTKLEIKR
540	3D12_var7 (antibody, V domains shown) VH: QVQLVQSGAEVKKPGASVKVSCKASDYTFTDSEIHWVRQAPGQGLEWMGEIDPETGGTAYAQKFQGRVTLTADKSTSTAYMELSSLRSEDTAVYYCSRETDYFFDYWGQGTLVTVSS VL: DIQMTQSPSSLSASVGDRVTITCGASENIYGALNWYQRKQGKAPKLLIYGATNLADGVPSRFSGSGSGRDYTLTISSLQPEDVATYYCQNVLSTPWTFGQGTKLEIKR
710	3D12_var9 (antibody, V domains shown) VH: QVQLVQSGAEVKKPGASVKVSCKASDYTFTDSEIHWVRQAPGQGLEWIGEIDPETGGTAYNQKFKGRATLTADKSTSTAYMELSSLRSEDTAVYYCSRETDYFFDYWGQGTLVTVSS VL: DIQMTQSPSSLSASVGDRVTITCGASENIYGALNWYQQKPGKAPKLLIYGATNLADGVPSRFSGSGSGRDYTLTISSLQPEDVATYYCQNVLSTPWTFGQGTKLEIKR
